Experiment [1] addresses SARS-CoV-2 Beta-variant Spike with two stabilizing proline substitutions (S-2P) (SARS-CoV-2 Beta variant). Nature of the experiment: BLI, IgG.
Experiment [2] addresses T1, SARS-CoV-2 Omicron-variant receptor binding domain (RBD) (SARS-CoV-2 Omicron variant).
T1 construct: domain: RBD
Nature of the experiment: BLI, IgG. On the technique in general: In BLI a coated tip is dipped into the sample, and binding shifts an interference pattern.

B1: C143 WT IgG (antibody, V domains shown)
VH: EVQLVESGGGLVQPGGSLRLSCAASGFSVSTKYMTWVRQAPGKGLEWVSVLYSGGSDYYADSVKGRFTISRDNSKNALYLQMNSLRVEDTGVYYCARDSSEVRDHPGHPGRSVGAFDIWGQGTMVTVSS
VL: QSALTQPASVSGSPGQSITISCTGTSNDVGSYTLVSWYQQYPGKAPKLLIFEGTKRSSGISNRFSGSKSGNTASLTISGLQGEDEADYYCCSYAGASTFVFGGGTKLTVL
The Kd is the concentration at which binding is half-saturated. High values mean a looser complex, low ones a tighter complex. Turning to B1, the Kd in experiment [1] was found to be 450 nM; in experiment [2], 600 µM.

The values above are taken from patent publication US20250243261A1 (CZ BIOHUB SF, published 2025).
